Data on ten molecules can be found in patent publication US20200147235A1 (AbbVie / Abbott, published 2020).

The labels stand for the following.
T1: Human CD98 expressed on stably transfected CHO-K1 cells (human)
T1 construct: also called huCD98; CD98 heavy chain
T1 chain: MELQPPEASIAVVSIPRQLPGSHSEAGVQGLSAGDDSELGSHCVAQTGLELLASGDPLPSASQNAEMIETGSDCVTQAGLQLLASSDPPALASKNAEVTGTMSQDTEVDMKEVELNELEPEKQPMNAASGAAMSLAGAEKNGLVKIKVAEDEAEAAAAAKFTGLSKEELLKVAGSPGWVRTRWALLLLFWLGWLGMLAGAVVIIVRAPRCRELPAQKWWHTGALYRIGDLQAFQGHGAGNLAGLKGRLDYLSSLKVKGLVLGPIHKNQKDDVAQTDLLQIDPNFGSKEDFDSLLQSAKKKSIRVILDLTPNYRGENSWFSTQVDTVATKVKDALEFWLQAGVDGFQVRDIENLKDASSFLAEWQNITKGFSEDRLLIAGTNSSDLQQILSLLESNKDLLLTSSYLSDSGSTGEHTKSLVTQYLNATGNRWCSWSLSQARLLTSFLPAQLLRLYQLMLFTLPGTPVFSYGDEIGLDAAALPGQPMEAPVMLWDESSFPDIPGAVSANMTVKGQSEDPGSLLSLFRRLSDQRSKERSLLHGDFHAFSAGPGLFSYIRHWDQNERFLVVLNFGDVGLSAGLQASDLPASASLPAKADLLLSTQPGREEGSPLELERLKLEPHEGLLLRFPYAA

T2: Cynomolgus monkey CD98 ECD with C-terminal His-tag (cynomolgus monkey, UniProt P08195 105-529 (human entry))
T2 construct: also called cyCD98 ECD; recombinant cynomolgus monkey CD98 extracellular domain
T2 chain: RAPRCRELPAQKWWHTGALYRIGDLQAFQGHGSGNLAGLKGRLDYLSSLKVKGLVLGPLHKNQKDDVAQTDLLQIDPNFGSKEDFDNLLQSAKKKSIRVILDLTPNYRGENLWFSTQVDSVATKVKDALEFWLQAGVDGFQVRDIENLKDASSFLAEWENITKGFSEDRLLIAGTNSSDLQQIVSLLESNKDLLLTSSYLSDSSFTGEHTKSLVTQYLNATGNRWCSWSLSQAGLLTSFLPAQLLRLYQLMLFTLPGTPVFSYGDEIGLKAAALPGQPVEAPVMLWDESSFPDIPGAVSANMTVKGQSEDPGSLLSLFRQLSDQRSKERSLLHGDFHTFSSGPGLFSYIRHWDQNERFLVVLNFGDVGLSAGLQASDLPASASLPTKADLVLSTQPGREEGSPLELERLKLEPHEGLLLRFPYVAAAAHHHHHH

T3: Human CD98 ECD with C-terminal His-tag (human, UniProt P08195 105-529)
T3 construct: also called huCD98 ECD; recombinant human CD98 extracellular domain
T3 sequence: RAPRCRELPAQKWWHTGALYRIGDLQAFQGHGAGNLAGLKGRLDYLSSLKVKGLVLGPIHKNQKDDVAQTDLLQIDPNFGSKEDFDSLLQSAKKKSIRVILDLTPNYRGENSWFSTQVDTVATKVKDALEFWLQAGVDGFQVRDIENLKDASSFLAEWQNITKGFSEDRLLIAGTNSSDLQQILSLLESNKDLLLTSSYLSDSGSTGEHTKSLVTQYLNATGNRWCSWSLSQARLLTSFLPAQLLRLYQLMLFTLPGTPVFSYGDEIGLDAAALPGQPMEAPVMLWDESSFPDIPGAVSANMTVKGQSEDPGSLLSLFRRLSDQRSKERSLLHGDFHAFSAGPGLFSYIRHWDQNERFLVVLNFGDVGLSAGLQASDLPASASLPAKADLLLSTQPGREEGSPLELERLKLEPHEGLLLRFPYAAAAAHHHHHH

B1: Recombinant anti-CD98 chimeric antibody chAb5 (antibody, human IgG1, V domains shown)
VH: EVKLVESGGGLVQPGGSLRLSCATSGFTFTDYYMTWVRQPPGKALEWLGFIRNKANGYTTEYSASVKGRFTISRDNSLSILYLQMNTLRAEDSATYYCARASYVNSEGWFAYWGQGTLVTVSA
VL: DIVMSQSPSSLAVSVGEKVTMSCKSSQSLLYSSNQKNYLAWYQQKLGQSPKLLIYWASTRESGVPDRFTGSGSGTDFTLTISSVKAEDLAVYYCQHYYSYPRTFGGGTKLEIK
B2: Recombinant anti-CD98 chimeric antibody chAb4 (antibody, human IgG1, V domains shown)
VH: B1 VH with A23T, T35S, N56T, G57I, L78Q, V104G
VL: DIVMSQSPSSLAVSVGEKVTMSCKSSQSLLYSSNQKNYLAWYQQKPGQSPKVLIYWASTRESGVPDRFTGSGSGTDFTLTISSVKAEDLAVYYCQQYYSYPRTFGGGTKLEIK
B3: Recombinant anti-CD98 chimeric antibody chAb3 (antibody, human IgG1, V domains shown)
VH: EVKLVESGGGLVQPGNSLRLSCATSGFTFIDYYMSWVRQSPGKALEWLGFIRNKANGYTTEYSASVKGRFTISRDNSQSILYLQMDTLRAEDSATYYCTRDRPAWFVYWGQGTLVTVSA
VL: B1 VL with L46P, I81F, K85R, H96Q, R102Y
B4: Recombinant anti-CD98 chimeric antibody chAb6 (antibody, human IgG1, V domains shown)
VH: QVQLKESGPGLAQPSQTLSLTCTVSGFSLSTYGVIWLRQPPGKGLEWMGVIWTNGNTNYNSTLKSRLSISRDTSESQVYLQMNSLQTEDTATYYCARHYYDGAYYYGYFDYWGQGVMVTVSS
VL: DIVMTQTPSSQAVSAGEKVTMSCKSSQSLLYSENKKNYLAWYQQKPGQSPKLLIYWASTRESGVPDRFIGSGSGTDFTLTISSVQAEDLAVYYCQQYYYFPYTFGAGTKLELK
B5: Recombinant anti-CD98 chimeric antibody chAb7 (antibody, human IgG1, V domains shown)
VH: B4 VH with A12V, L37V, T53A, E75K, Q81K, A103T
VL: B4 VL with S22N, A106P
B6: Recombinant anti-CD98 chimeric antibody chAb13 (antibody, human IgG1, V domains shown)
VH: B4 VH with A12V, T31S, L37V, V50I, T53A, T62A, E75K, Q81K, A103T, Y104H
VL: B4 VL with I2T, N37K, Y99N
notes: also called chAbl 3
B7: Recombinant anti-CD98 chimeric antibody chAb9 (antibody, human IgG1, V domains shown)
VH: B4 VH with A12V, T23A, T31N, L37V, G49A, E75K, Q81K, A103T
VL: B4 VL with S32T, I69M, T103M
B8: Recombinant anti-CD98 chimeric antibody chAb8 (antibody, human IgG1, V domains shown)
VH: EVQLVESGGGLVQPGRSLKLSCAASGFTFSDYAMAWVRQAPKKGLEWVASIIYDGRGTYYRDSVKGRFTISRDNAKSTLYLQMDSLRSEDTATYYCARQGDGTYYYWGYFDYWGQGVMVTVSS
VL: DIVMTQSPSSLAVSAGETVTINCKSSQSLLSSGNQKNYLAWYQQKPGQSPKLLIYWASTRQSGVPDRFIGSGSGTDFTLTINSVQAEDLAIYYCQQYYDTPYTFGAGTKLELK
B9: Recombinant anti-CD98 chimeric antibody chAb10 (antibody, human IgG1, V domains shown)
VH: B8 VH with G44S, S50T, Y60C, Y105H
VL: B8 VL with N82S, L110V, E111D
B10: Recombinant anti-CD98 chimeric antibody chAb12 (antibody, human IgG1, V domains shown)
VH: B8 VH with Y109S
VL: B8 VL with N82S, Y93H

Where a chain is given by its changes, count along the chain named.

In the first assay the target is T1, Human CD98 expressed on stably …. In words: flow cytometry, CHO-K1 cells expressing human CD98. As for the experimental part: (§1) Briefly, binding kinetics of anti-CD98 chimera mAbs for human and cynomolgus CD98 ECDs were determined by surface plasmon resonance-based measurements as described in Example 4. Table 10 reported the association and dissociation rate constants for CD98 binding, kₐ (M⁻¹s⁻¹) and kd (s⁻¹), and the equilibrium dissociation constant KD (M) of the interaction between antibodies and the target antigen. Binding of anti-CD98 chimera mAbs for CD98 on cell surface was evaluated by flow cytometry against CHO-K1 cell line stably transfected to express human CD98 and 3T12 cell line stably transfected to express cynomolgus monkey CD98.
Background: Flow cytometry measures light scatter and fluorescence of single cells or particles in a stream.
What is called EC50 is the midpoint of the concentration-response curve. In turn, B1 gave an EC50 of 3.25 nM.

Turning to B2, the EC50 was found to be 5.41 nM.

As to B3, the EC50 worked out at 2.02 nM.

With B4, the EC50 came out at 2.08 nM.

Consider B5, for which the EC50 was determined as 2.56 nM.

Regarding B6, it took 3.24 nM to reach a half-maximal effect (EC50).

As to B7, the EC50 amounted to 8.55 nM.

Turning to B8, it took 2.61 nM to reach a half-maximal effect (EC50).

For the molecule B9, a half-maximal effect (EC50) was put at 6.45 nM.

Take B10: the response was half-maximal at 2.89 nM (EC50).

In a further assay the target is T4, Cynomolgus monkey CD98 expressed on stably transfected 3T12 cells (cynomolgus monkey).
T4 construct: whole, on cells; also called cyCD98
In words: flow cytometry, 3T12 cells expressing cynomolgus CD98. As for the experimental part: as §1
The molecule B1 yielded an EC50 of 24.2 nM.

B2 came in with an EC50 of 17.2 nM.

B3 returned an EC50 of 9.87 nM.

For B4, the EC50 turned out to be 5.99 nM.

With B5, the EC50 stood at 6.49 nM.

Regarding B6, the EC50 was 2.98 nM.

As for B7, the EC50 was 11.1 nM.

For the molecule B8, the EC50 came out at 10.1 nM.

With B9, the EC50 came to 10.8 nM.

Regarding B10, the EC50 is 14.9 nM.

Another assay has as its target T2, Cynomolgus monkey CD98 ECD with …. Put plainly: SPR Biacore, anti-Fc capture of mAb, CD98 ECD analyte. As for the experimental part:
(§2) The binding kinetics of these purified mouse and rat monoclonal anti-CD98 antibodies for purified recombinant CD98 protein (extracellular domain. ECD) were determined by surface plasmon resonance-based measurements made on Biacore T100/T200 instruments (GE Healthcare, Piscataway, N.J.) at 25° C. using an anti-Fc capture assay approach. Binding kinetic measurements were made in the assay buffer HBS-EP+: 10 mM Hepes, pH 7.4, 150 mM NaCl, 3 mM EDTA, 0.05% Tween 20). For example, approximately 8000 RU of anti-Fc (species specific) polyclonal antibody (Thermo Fisher Scientific Inc. Rockford, Ill.) diluted in 10 mM sodium acetate (pH 4.5) was directly immobilized across a CM5 research grade biosensor chip using a standard amine coupling kit according to manufacturer's instructions and procedures at 25 μg/ml. Unreacted moieties on the biosensor surface were blocked with ethanolamine. The test antibody to be captured as a ligand was diluted in running buffer to ˜0.5 μg/mL and injected over anti-Fc surface at a flow rate of 10 μL/min, CD98 binding and dissociation were observed under a continuous flow rate of 80 μL/min. Human and cynomolgus monkey CD98 ECDs, both with a C-terminal His-tag, are used for this study (Table 3). After each cycle the anti-Fc capture surface was regenerated using 10 mM Glycine-HCl, pH 1.5. During the assay, all measurements were referenced against the capture surface alone (i.e., with no captured test antibody) and buffer-only injections (no antigen) were used for double referencing. For kinetic analysis, rate equations derived from the 1:1 Langmuir binding model were fitted simultaneously, globally and with mass transfer term included to multiple referenced antigen binding curves using Biacore T100T200 Evaluation software.
(§3) Briefly, binding kinetics of anti-CD98 chimera mAbs for human and cynomolgus CD98 ECDs were determined by surface plasmon resonance-based measurements as described in Example 4.
(SPR reads the build-up and loss of mass on a sensor chip optically.)
As a reminder, the Kd is the free concentration of one partner at which half of the binding sites on the other are occupied at equilibrium, for simple one-to-one binding. Broadly, the koff is the rate constant with which the complex falls apart. For orientation: kon means the second-order rate constant of association. B1 displayed a Kd of 25 nM, a koff of 0.00044 s⁻¹ and a kon of 18000 M⁻¹ s⁻¹.

Consider B2, for which the Kd was found to be 8.3 nM, the koff was 7.3e-05 s⁻¹ and the kon turned out to be 8800 M⁻¹ s⁻¹.

As for B3, the affinity, expressed as Kd, was 40 nM; the koff amounted to 0.0016 s⁻¹; the kon was 39000 M⁻¹ s⁻¹.

For the molecule B4, the Kd was 7.9 nM, the koff was determined as 0.00037 s⁻¹ and the kon was 47000 M⁻¹ s⁻¹.

With B5, the Kd is 3.5 nM, the koff is 0.00022 s⁻¹ and the kon was found to be 63000 M⁻¹ s⁻¹.

Molecule B6 registered a Kd of 7.1 nM, a koff of 0.00044 s⁻¹ and a kon of 62000 M⁻¹ s⁻¹.

Turning to B7, the affinity, expressed as Kd, was 19 nM; the koff is 0.00063 s⁻¹; the kon was found to be 33000 M⁻¹ s⁻¹.

Molecule B8 displayed a Kd of 17 nM, a koff of 0.0005 s⁻¹ and a kon of 28000 M⁻¹ s⁻¹.

For B9, the Kd is 11 nM, the dissociation rate constant (koff) was determined as 0.00064 s⁻¹ and the kon was 59000 M⁻¹ s⁻¹.

B10: the Kd came to 3.8 nM, the koff is 9.3e-05 s⁻¹ and the kon is 24000 M⁻¹ s⁻¹.

In the next assay the target is T3, Human CD98 ECD with C-terminal His-tag. The assay is described as above. As for the experimental part: as §2, §3
Turning to B1, the Kd is 7.5 nM, the koff stood at 0.0003 s⁻¹ and the kon was 40000 M⁻¹ s⁻¹.

Molecule B2 displayed a Kd of 2.8 nM, a koff of 7.8e-05 s⁻¹ and a kon of 28000 M⁻¹ s⁻¹.

Take B3: the affinity, expressed as Kd, was 21 nM; the koff stood at 0.0034 s⁻¹; the kon was determined as 160000 M⁻¹ s⁻¹.

B4 displayed a Kd of 1.3 nM, a koff of 0.00014 s⁻¹ and a kon of 110000 M⁻¹ s⁻¹.

B5: binding was characterised by a dissociation constant (Kd) of 0.45 nM, the koff is 6.2e-05 s⁻¹ and the kon amounted to 140000 M⁻¹ s⁻¹.

Consider B6, for which the affinity, expressed as Kd, was 1.2 nM; the koff came out at 0.00016 s⁻¹; the kon is 130000 M⁻¹ s⁻¹.

Turning to B7, the Kd stood at 3.3 nM, the koff is 0.00024 s⁻¹ and the kon is 73000 M⁻¹ s⁻¹.

B8: the Kd is 4.2 nM, the koff was 0.00028 s⁻¹ and the kon was found to be 67000 M⁻¹ s⁻¹.

B9 returned a Kd of 3.3 nM, a koff of 0.00033 s⁻¹ and a kon of 100000 M⁻¹ s⁻¹.

As for B10, binding was characterised by a dissociation constant (Kd) of 1.2 nM, the off-rate constant (koff) came out at 6.3e-05 s⁻¹ and the kon was found to be 54000 M⁻¹ s⁻¹.
